Measurements reported in article PMC9452770.

Target: VaERF16-GFP (Vitis amurensis 'Shuang You')

VaMYB306-HA (natural protein)
dual-luciferase assay in tobacco leaves: activation of the VaPDF1.2 promoter (LUC/REN) by 62-SK-VaERF16 and 62-SK-VaMYB306 co-expressed (untagged full-length effectors): 3.5 fold
